Measurements: article PMC3399880, “Genomic Organisation, Embryonic Expression and Biochemical Interactions of the Zebrafish Junctional Adhesion Molecule Family of Receptors” (PLoS ONE, 2012)

B2: zebrafish Jamc ectodomain (extracellular IgSF domains) fused to rat Cd4 domains 3 and 4 (domain or fragment, UniProt A3KPA0 24-235, looked up)
chain: VLLKSTNSKPWVNEFESIELSCMIESITTTKPRIEWKKIKNGDPSYVYFDNQISGDLERRAKIREPATLVILNATRSDSADYRCEVTAPNDQKSFDEILISLTVRVKPVVPRCSVPKSIPVGKPAELHCLEDEGYPKSQYQWFRNKEEIPLDPKSSPKFFNSTYTLDGEMGTLKFSAVRKEDAGEYYCRAKNEAGISECGPQMMEVYDINIA
notes: Jamc (official symbol jam3b), zebrafish orthologue of JAM-C; extracellular IgSF domains; Stood both as analyte and as ligand (6H and bio forms); also called Jam3b; JAM-C orthologue; source: mammalian expression system, purified; analyte resolved by gel filtration immediately before use; not shown: rat Cd4 domains 3 and 4, C-terminal, kept

Assays:
Assay in all cases: SPR; systematic all-against-all screen of the six ectodomains, each as analyte and as ligand; dissociation phase of three concentrations of purified analyte averaged and fitted to a first-order decay curve; t1/2 = ln 2/kd; 28°C; half-lives in the text are the average of both orientations; t1/2 <=0.1 s not quantifiable (10 Hz instrument)
[1] = biological target: zebrafish Jamc ectodomain (extracellular IgSF domains) fused to rat Cd4 domains 3 and 4 (zebrafish) (UniProt A3KPA0)
[2] = biological target: zebrafish Jamc2 ectodomain (extracellular IgSF domains) fused to rat Cd4 domains 3 and 4 (zebrafish)
[3] = biological target: B2; settings: both partners purified
[4] = biological target: the molecule itself

“zebrafish Jamb2 ectodomain (extracellular IgSF domains) fused to rat Cd4 domains 3 and 4 (from UniProt B0V233 1-306) (domain or fragment)” was tested, and the t1/2 (half-life of the complex) [1] was 0.26 s.

With “zebrafish Jamb ectodomain (extracellular IgSF domains) fused to rat Cd4 domains 3 and 4 (from UniProt A0A0R4IGV4 19-226) (domain or fragment)” the t1/2 (half-life of the complex) [2] was 7 s.

For “zebrafish Jamc2 ectodomain (extracellular IgSF domains) fused to rat Cd4 domains 3 and 4 (from UniProt A0ACD6B6E9 1-301) (domain or fragment)”, the t1/2 (half-life of the complex) [2] was 0.11 s.

B1: zebrafish Jamb ectodomain (extracellular IgSF domains) fused to rat Cd4 domains 3 and 4 (domain or fragment, UniProt A0A0R4IGV4 19-226, looked up)
chain: VTVSSRNPKVEVHEFSDAELSCEFKTEKDTNPRIEWKRKDKEKDVSFVYYGERFVGPFQDRADIEGATVRLRRVTQADAGEYRCEVSAPSDSISLGETNVTLRVLVPPQTPSCDVPSSALTGSQVELRCRDRHSIPPAVYTWYKDNRALPIRHPNATYTVNEFTGVLIPQSHYNPGTVCQHCMYHPNYHIPNTQLTTTFQTHDLNVAA
notes: Jamb (official symbol jam2a), zebrafish orthologue of JAM-B; extracellular IgSF domains; Stood both as analyte and as ligand (6H and bio forms); also called Jam2a; JAM-B orthologue; source: mammalian expression system, purified; analyte resolved by gel filtration immediately before use; not shown: rat Cd4 domains 3 and 4, C-terminal, kept
In the case of B1, the “t1/2 (half-life of the complex)” value [3] is reported as ~1.63 s.

For B2, the “t1/2 (half-life of the complex)” value [4] was 0.67 s.
